What was measured:
[1] = biological target: T1, angiotensin converting enzyme (ACE), obtained from Sigma Chemicals; assay: cell-based or functional assay
[2] = biological target: T1, angiotensin converting enzyme (ACE), …; assay: cell-based or functional assay; remark: listed apart in the source

Binder	IC50 value in the Modified Matsui test [1] [µM]	IC50 value in µM, Modified Matsui assay (cleavage of Hip-His-Leu by ACE) [2] [µM]	IC50 value in µM, at-line ACE assay (cleavage of HHL by ACE) [2] [µM]
MAP [tripeptide MAP (Met-Ala-Pro), chemically synthesised]	0.5	0.4	3.8
ITP [tripeptide ITP (Ile-Thr-Pro), chemically synthesised]		10	50
IPP [tripeptide IPP (Ile-Pro-Pro), chemically synthesised]		2	7.1

Reference: patent US20090042809A1 (published 2009)
